{
  "source": "paper doi:10.1101/497024",
  "target": "HeV PNT3 (aa 200-310 of the Hendra virus P/V protein) (Hendra virus) (UniProt O55778)",
  "experiment": "SAXS",
  "data": [
    {"substance": "HeV PNT3 (aa 200-310 of the Hendra virus P/V protein) (from UniProt O55778 200-310) (domain or fragment)", "values": [
      {"measurement": "stoichiometry N", "value": 100, "unit": "monomers"}
    ]}
  ]
}
